The values that follow come from publication PMC7563123 (Biomolecules, 2020).

Holding throughout (conditions): both partners purified
Assay [1] addresses T1, amyloid beta peptide 1-42 (Aβ1–42) (human, UniProt P05067 672-713).
T1 construct: amyloid beta peptide of 42 amino acids, human, produced from amyloid precursor protein; numbers count on: the Aβ peptide; One peptide used in two states; Preparation B (NaOH) is called monomeric, though it might hold monomers and low oligomers; Preparation A (plain dilution of the stock) is called oligomeric, and the size of the oligomers is not determined; The states are told apart by the …
Kind of assay: SPR; oligomeric Aβ1–42 (Preparation A, dilution of the stock), 1.1-0.055 μM, flowed over cypD or 17β-HSD10 captured by immobilised antibody; running buffer RB1 (10 mM HEPES pH 7.4, BSA 200 μg/mL, 5 mM Na+, 140 mM K+, 1 mM Mg2+); 25 °C, 20 µL/min; global fit, 1:1 Langmuir model. A general note: SPR reads the build-up and loss of mass on a sensor chip optically.

In assay [2] the target is T1, amyloid beta peptide 1-42 (Aβ1–42). Kind of assay: SPR; monomeric Aβ (Aβ1–40 by Preparation C, HFIP; Aβ1–42 by Preparation B, NaOH), five concentrations, flowed over cypD or 17β-HSD10 captured by immobilised antibody; running buffer RB1 (10 mM HEPES pH 7.4, BSA 200 μg/mL, 5 mM Na+, 140 mM K+, 1 mM Mg2+); 25 °C, 20 µL/min; global fit, 1:1 Langmuir model.
The target in assay [3] is T2, amyloid beta peptide 1-40 (Aβ1–40) (human, UniProt P05067 672-711).
T2 construct: amyloid beta peptide of 40 amino acids, human, produced from amyloid precursor protein; numbers count on: the Aβ peptide; Stock dissolved in 1% NH4OH and diluted by PBS to 100 μM; Preparation C (HFIP) is called monomeric, though it might hold monomers and low oligomers; also called monomeric Aβ_(1–40); source: synthetic peptide, bought: AnaSpec
The assay is described as above.

B1: cyclophilin D (cypD), human recombinant (enzyme)
chain: not shown
notes: cyclophilin D, human recombinant, NCBI Gene ID 10105; Commercial protein; It was held on the chip by an immobilised anti-cypD antibody; source: bought: Fitzgerald
The term Kd denotes the free concentration of one partner at which half of the binding sites on the other are occupied at equilibrium, for simple one-to-one binding. In general, koff refers to a measure of how fast the partners let go of each other. A lower koff goes with slow dissociation. As a reminder, the kon is the rate constant with which the complex forms. For B1, in assay [1], the Kd was 5.3 ± 1.2 nM, the koff amounted to 6.1e-05 s⁻¹ and the kon worked out at 11100 M⁻¹ s⁻¹. In assay [2], this molecule returned a Kd of 56.5 ± 5.4 nM, a koff of 0.000139 s⁻¹ and a kon of 2690 M⁻¹ s⁻¹. Moreover, in assay [3], the Kd was 160 ± 57.8 nM, the koff amounted to 0.000174 s⁻¹ and the kon turned out to be 1170 M⁻¹ s⁻¹.
